Target: VP11-His (pET-28b/VP11-His) (White spot syndrome virus (WSSV-TW strain))
Assay: cross-linking; VP11-His from clear E. coli lysate held on Ni-NTA beads, washed, 0.05% glutaraldehyde in PBS passed through the column, eluted with 250 mM imidazole, SDS-PAGE and anti-His immunoblot

VP11-His (pET-28b/VP11-His) (natural protein)
stoichiometry N: 2
